From US20230002496A1 (STAIDSON BEIJING BIOPHARMACEUTICALS, published 2023) come the findings set out here.

The chains are these.
T1: human GM-CSFRα, full length on cells (human, UniProt P15509 23-400)
T1 sequence: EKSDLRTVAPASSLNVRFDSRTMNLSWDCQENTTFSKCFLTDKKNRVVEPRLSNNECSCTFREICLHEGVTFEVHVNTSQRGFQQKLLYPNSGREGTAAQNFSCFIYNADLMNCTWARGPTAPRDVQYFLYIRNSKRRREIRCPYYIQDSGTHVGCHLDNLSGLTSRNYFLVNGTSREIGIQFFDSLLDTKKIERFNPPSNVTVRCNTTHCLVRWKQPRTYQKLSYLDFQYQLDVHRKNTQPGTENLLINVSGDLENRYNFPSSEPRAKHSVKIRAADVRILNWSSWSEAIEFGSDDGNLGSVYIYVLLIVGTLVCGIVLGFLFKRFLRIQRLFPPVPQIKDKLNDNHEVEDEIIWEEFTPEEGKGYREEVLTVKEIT

B1: E35-scFv LS26N (scFv, V domains shown)
VH: QMQLVQSGAEVKKPGASVKVSCKVSGYTLTELSIHWVRQAPGKGLEWMGGFDPEDGETIYAQKFQGRVTMTGDTSTDTAYLELSSLRSEDTALYYCATGRYTSLATTYGFDYWGQGTLVTVSS
VL: EIVMTQSPATLSLSPGERATLSCRANQSVSSYLAWYQQKPGQAPRLLIYGASSRATGIPDRFSGSGSGTDFTLTISRLEPEDFAVYYCQQYDNWPYTFGQGTKLEIK
B2: E35-scFv LS26G (scFv, V domains shown)
VH: QMQLVQSGAEVKKPGASVKVSCKVSGYTLTELSIHWVRQAPGKGLEWMGGFDPEDGETIYAQKFQGRVTMTGDTSTDTAYLELSSLRSEDTALYYCATGRYTSLATTYGFDYWGQGTLVTVSS
VL: EIVMTQSPATLSLSPGERATLSCRAGQSVSSYLAWYQQKPGQAPRLLIYGASSRATGIPDRFSGSGSGTDFTLTISRLEPEDFAVYYCQQYDNWPYTFGQGTKLEIK
B3: E35-scFv LS26C (scFv, V domains shown)
VH: QMQLVQSGAEVKKPGASVKVSCKVSGYTLTELSIHWVRQAPGKGLEWMGGFDPEDGETIYAQKFQGRVTMTGDTSTDTAYLELSSLRSEDTALYYCATGRYTSLATTYGFDYWGQGTLVTVSS
VL: EIVMTQSPATLSLSPGERATLSCRACQSVSSYLAWYQQKPGQAPRLLIYGASSRATGIPDRFSGSGSGTDFTLTISRLEPEDFAVYYCQQYDNWPYTFGQGTKLEIK
B4: E35-scFv LS26T (scFv, V domains shown)
VH: QMQLVQSGAEVKKPGASVKVSCKVSGYTLTELSIHWVRQAPGKGLEWMGGFDPEDGETIYAQKFQGRVTMTGDTSTDTAYLELSSLRSEDTALYYCATGRYTSLATTYGFDYWGQGTLVTVSS
VL: EIVMTQSPATLSLSPGERATLSCRATQSVSSYLAWYQQKPGQAPRLLIYGASSRATGIPDRFSGSGSGTDFTLTISRLEPEDFAVYYCQQYDNWPYTFGQGTKLEIK
B5: E35-scFv LQ27L (scFv, V domains shown)
VH: QMQLVQSGAEVKKPGASVKVSCKVSGYTLTELSIHWVRQAPGKGLEWMGGFDPEDGETIYAQKFQGRVTMTGDTSTDTAYLELSSLRSEDTALYYCATGRYTSLATTYGFDYWGQGTLVTVSS
VL: EIVMTQSPATLSLSPGERATLSCRASLSVSSYLAWYQQKPGQAPRLLIYGASSRATGIPDRFSGSGSGTDFTLTISRLEPEDFAVYYCQQYDNWPYTFGQGTKLEIK
B6: E35-scFv LS26K (scFv, V domains shown)
VH: QMQLVQSGAEVKKPGASVKVSCKVSGYTLTELSIHWVRQAPGKGLEWMGGFDPEDGETIYAQKFQGRVTMTGDTSTDTAYLELSSLRSEDTALYYCATGRYTSLATTYGFDYWGQGTLVTVSS
VL: EIVMTQSPATLSLSPGERATLSCRAKQSVSSYLAWYQQKPGQAPRLLIYGASSRATGIPDRFSGSGSGTDFTLTISRLEPEDFAVYYCQQYDNWPYTFGQGTKLEIK
B7: E35-scFv LQ27A (scFv, V domains shown)
VH: QMQLVQSGAEVKKPGASVKVSCKVSGYTLTELSIHWVRQAPGKGLEWMGGFDPEDGETIYAQKFQGRVTMTGDTSTDTAYLELSSLRSEDTALYYCATGRYTSLATTYGFDYWGQGTLVTVSS
VL: EIVMTQSPATLSLSPGERATLSCRASASVSSYLAWYQQKPGQAPRLLIYGASSRATGIPDRFSGSGSGTDFTLTISRLEPEDFAVYYCQQYDNWPYTFGQGTKLEIK
B8: E35-scFv LQ27T (scFv, V domains shown)
VH: QMQLVQSGAEVKKPGASVKVSCKVSGYTLTELSIHWVRQAPGKGLEWMGGFDPEDGETIYAQKFQGRVTMTGDTSTDTAYLELSSLRSEDTALYYCATGRYTSLATTYGFDYWGQGTLVTVSS
VL: EIVMTQSPATLSLSPGERATLSCRASTSVSSYLAWYQQKPGQAPRLLIYGASSRATGIPDRFSGSGSGTDFTLTISRLEPEDFAVYYCQQYDNWPYTFGQGTKLEIK
B9: E35-scFv LQ27Y (scFv, V domains shown)
VH: QMQLVQSGAEVKKPGASVKVSCKVSGYTLTELSIHWVRQAPGKGLEWMGGFDPEDGETIYAQKFQGRVTMTGDTSTDTAYLELSSLRSEDTALYYCATGRYTSLATTYGFDYWGQGTLVTVSS
VL: EIVMTQSPATLSLSPGERATLSCRASYSVSSYLAWYQQKPGQAPRLLIYGASSRATGIPDRFSGSGSGTDFTLTISRLEPEDFAVYYCQQYDNWPYTFGQGTKLEIK
B10: E35-scFv LS26M (scFv, V domains shown)
VH: QMQLVQSGAEVKKPGASVKVSCKVSGYTLTELSIHWVRQAPGKGLEWMGGFDPEDGETIYAQKFQGRVTMTGDTSTDTAYLELSSLRSEDTALYYCATGRYTSLATTYGFDYWGQGTLVTVSS
VL: EIVMTQSPATLSLSPGERATLSCRAMQSVSSYLAWYQQKPGQAPRLLIYGASSRATGIPDRFSGSGSGTDFTLTISRLEPEDFAVYYCQQYDNWPYTFGQGTKLEIK
B11: E35-scFv LQ27P (scFv, V domains shown)
VH: QMQLVQSGAEVKKPGASVKVSCKVSGYTLTELSIHWVRQAPGKGLEWMGGFDPEDGETIYAQKFQGRVTMTGDTSTDTAYLELSSLRSEDTALYYCATGRYTSLATTYGFDYWGQGTLVTVSS
VL: EIVMTQSPATLSLSPGERATLSCRASPSVSSYLAWYQQKPGQAPRLLIYGASSRATGIPDRFSGSGSGTDFTLTISRLEPEDFAVYYCQQYDNWPYTFGQGTKLEIK
B12: E35-scFv LQ27F (scFv, V domains shown)
VH: QMQLVQSGAEVKKPGASVKVSCKVSGYTLTELSIHWVRQAPGKGLEWMGGFDPEDGETIYAQKFQGRVTMTGDTSTDTAYLELSSLRSEDTALYYCATGRYTSLATTYGFDYWGQGTLVTVSS
VL: EIVMTQSPATLSLSPGERATLSCRASFSVSSYLAWYQQKPGQAPRLLIYGASSRATGIPDRFSGSGSGTDFTLTISRLEPEDFAVYYCQQYDNWPYTFGQGTKLEIK
B13: E35-scFv LS26R (scFv, V domains shown)
VH: QMQLVQSGAEVKKPGASVKVSCKVSGYTLTELSIHWVRQAPGKGLEWMGGFDPEDGETIYAQKFQGRVTMTGDTSTDTAYLELSSLRSEDTALYYCATGRYTSLATTYGFDYWGQGTLVTVSS
VL: EIVMTQSPATLSLSPGERATLSCRARQSVSSYLAWYQQKPGQAPRLLIYGASSRATGIPDRFSGSGSGTDFTLTISRLEPEDFAVYYCQQYDNWPYTFGQGTKLEIK
B14: E35-scFv LS26I (scFv, V domains shown)
VH: QMQLVQSGAEVKKPGASVKVSCKVSGYTLTELSIHWVRQAPGKGLEWMGGFDPEDGETIYAQKFQGRVTMTGDTSTDTAYLELSSLRSEDTALYYCATGRYTSLATTYGFDYWGQGTLVTVSS
VL: EIVMTQSPATLSLSPGERATLSCRAIQSVSSYLAWYQQKPGQAPRLLIYGASSRATGIPDRFSGSGSGTDFTLTISRLEPEDFAVYYCQQYDNWPYTFGQGTKLEIK
B15: E35-scFv LQ27R (scFv, V domains shown)
VH: QMQLVQSGAEVKKPGASVKVSCKVSGYTLTELSIHWVRQAPGKGLEWMGGFDPEDGETIYAQKFQGRVTMTGDTSTDTAYLELSSLRSEDTALYYCATGRYTSLATTYGFDYWGQGTLVTVSS
VL: EIVMTQSPATLSLSPGERATLSCRASRSVSSYLAWYQQKPGQAPRLLIYGASSRATGIPDRFSGSGSGTDFTLTISRLEPEDFAVYYCQQYDNWPYTFGQGTKLEIK
B16: E35-scFv LS26A (scFv, V domains shown)
VH: QMQLVQSGAEVKKPGASVKVSCKVSGYTLTELSIHWVRQAPGKGLEWMGGFDPEDGETIYAQKFQGRVTMTGDTSTDTAYLELSSLRSEDTALYYCATGRYTSLATTYGFDYWGQGTLVTVSS
VL: EIVMTQSPATLSLSPGERATLSCRAAQSVSSYLAWYQQKPGQAPRLLIYGASSRATGIPDRFSGSGSGTDFTLTISRLEPEDFAVYYCQQYDNWPYTFGQGTKLEIK
B17: E35-scFv LQ27I (scFv, V domains shown)
VH: QMQLVQSGAEVKKPGASVKVSCKVSGYTLTELSIHWVRQAPGKGLEWMGGFDPEDGETIYAQKFQGRVTMTGDTSTDTAYLELSSLRSEDTALYYCATGRYTSLATTYGFDYWGQGTLVTVSS
VL: EIVMTQSPATLSLSPGERATLSCRASISVSSYLAWYQQKPGQAPRLLIYGASSRATGIPDRFSGSGSGTDFTLTISRLEPEDFAVYYCQQYDNWPYTFGQGTKLEIK
B18: E35-scFv LQ27V (scFv, V domains shown)
VH: QMQLVQSGAEVKKPGASVKVSCKVSGYTLTELSIHWVRQAPGKGLEWMGGFDPEDGETIYAQKFQGRVTMTGDTSTDTAYLELSSLRSEDTALYYCATGRYTSLATTYGFDYWGQGTLVTVSS
VL: EIVMTQSPATLSLSPGERATLSCRASVSVSSYLAWYQQKPGQAPRLLIYGASSRATGIPDRFSGSGSGTDFTLTISRLEPEDFAVYYCQQYDNWPYTFGQGTKLEIK
B19: E35-scFv LS26Q (scFv, V domains shown)
VH: QMQLVQSGAEVKKPGASVKVSCKVSGYTLTELSIHWVRQAPGKGLEWMGGFDPEDGETIYAQKFQGRVTMTGDTSTDTAYLELSSLRSEDTALYYCATGRYTSLATTYGFDYWGQGTLVTVSS
VL: EIVMTQSPATLSLSPGERATLSCRAQQSVSSYLAWYQQKPGQAPRLLIYGASSRATGIPDRFSGSGSGTDFTLTISRLEPEDFAVYYCQQYDNWPYTFGQGTKLEIK
B20: E35-scFv LS26H (scFv, V domains shown)
VH: QMQLVQSGAEVKKPGASVKVSCKVSGYTLTELSIHWVRQAPGKGLEWMGGFDPEDGETIYAQKFQGRVTMTGDTSTDTAYLELSSLRSEDTALYYCATGRYTSLATTYGFDYWGQGTLVTVSS
VL: EIVMTQSPATLSLSPGERATLSCRAHQSVSSYLAWYQQKPGQAPRLLIYGASSRATGIPDRFSGSGSGTDFTLTISRLEPEDFAVYYCQQYDNWPYTFGQGTKLEIK

The target of the test is T1, human GM-CSFRα, full length on cells. Kind of test: cell-based or functional assay.
Consider B1, for which the “IC50, TF-1 cell proliferation” value came to 0.054 µg/mL.

Turning to B2, the “IC50, TF-1 cell proliferation” value stood at 0.078 µg/mL.

As to B3, the “IC50, TF-1 cell proliferation” value was determined as 0.114 µg/mL.

On to B4, for which the “IC50, TF-1 cell proliferation” value came to 0.081 µg/mL.

On to B5, for which the “IC50, TF-1 cell proliferation” value came out at 0.128 µg/mL.

On to B6, for which the “IC50, TF-1 cell proliferation” value came to 0.069 µg/mL.

B7: the “IC50, TF-1 cell proliferation” value came out at 0.104 µg/mL.

Consider B8, for which the “IC50, TF-1 cell proliferation” value came to 0.113 µg/mL.

With B9, the “IC50, TF-1 cell proliferation” value amounted to 0.065 µg/mL.

Take B10: the “IC50, TF-1 cell proliferation” value was determined as 0.089 µg/mL.

B11: the “IC50, TF-1 cell proliferation” value is 0.097 µg/mL.

On to B12, for which the “IC50, TF-1 cell proliferation” value came out at 0.113 µg/mL.

As to B13, the “IC50, TF-1 cell proliferation” value came out at 0.072 µg/mL.

Turning to B14, the “IC50, TF-1 cell proliferation” value stood at 0.073 µg/mL.

For B15, the “IC50, TF-1 cell proliferation” value was 0.117 µg/mL.

As for B16, the “IC50, TF-1 cell proliferation” value came to 0.062 µg/mL.

Consider B17, for which the “IC50, TF-1 cell proliferation” value was found to be 0.105 µg/mL.

As to B18, the “IC50, TF-1 cell proliferation” value was determined as 0.12 µg/mL.

Regarding B19, the “IC50, TF-1 cell proliferation” value turned out to be 0.075 µg/mL.

B20: the “IC50, TF-1 cell proliferation” value stood at 0.089 µg/mL.
